B1: CRZ1 Probe 1 (dsDNA)
DNA 1: TGTGTGTGTGTGTGACAGTCCAGTCCCTCAACTAATTTAAAACAGTTTTT
DNA 2: AAAAACTGTTTTAAATTAGTTGAGGGACTGGACTGTCACACACACACACA
B2: CRZ1 Probe 4 (dsDNA)
DNA 1: AACAATTTAATCTGGTCATTTCATTTCCCCTAACAGCATCTTTCCAAGTT
DNA 2: AACTTGGAAAGATGCTGTTAGGGGAAATGAAATGACCAGATTAAATTGTT
B3: CRZ1 Probe 3 (dsDNA)
DNA 1: TTTCAACTTCCATCATATTTACCACAATTGGATTAACTTGGTTAT
DNA 2: ATAACCAAGTTAATCCAATTGTGGTAAATATGATGGAAGTTGAAA
B4: UTR2 Probe 1 EMSA_UTR2_F/R(H) (dsDNA)
DNA 1: CTTTCATTTCATTTCTTTTCTCAACGCCTCAAAATTTGATTCTTAAAATT
DNA 2: AATTTTAAGAATCAAATTTTGAGGCGTTGAGAAAAGAAATGAAATGAAAG
B5: UTR2 Probe 2 EMSA_UTR2_F/R(M) (dsDNA)
DNA 1: GGCTTAAATTCTTGAGTTGTGGGCTTTGAATTTCTTTCATTTCAT
DNA 2: ATGAAATGAAAGAAATTCAAAGCCCACAACTCAAGAATTTAAGCC
B6: CRZ1 Probe 2 (dsDNA)
DNA 1: ATTAGAATAGAATATTATCACAGACCCCCCCAATATCTATTTATCAACCT
DNA 2: AGGTTGATAAATAGATATTGGGGGGGTCTGTGATAATATTCTATTCTAAT

Tests used:
His6-CaCrz1 [1] = target: T1, His6-CaCrz1 (Candida albicans, UniProt Q5A4H5 1-731); test: EMSA; 1 ug protein; abolished by unlabelled Probe 1; EMSA with DIG-labelled probes and 1 ug His6-Crz1; buffer, salt, pH and temperature not given in the material; conditions: protein: recombinant, tags: N-terminal His6 (pET28a(+)), label: DIG
T1 sequence: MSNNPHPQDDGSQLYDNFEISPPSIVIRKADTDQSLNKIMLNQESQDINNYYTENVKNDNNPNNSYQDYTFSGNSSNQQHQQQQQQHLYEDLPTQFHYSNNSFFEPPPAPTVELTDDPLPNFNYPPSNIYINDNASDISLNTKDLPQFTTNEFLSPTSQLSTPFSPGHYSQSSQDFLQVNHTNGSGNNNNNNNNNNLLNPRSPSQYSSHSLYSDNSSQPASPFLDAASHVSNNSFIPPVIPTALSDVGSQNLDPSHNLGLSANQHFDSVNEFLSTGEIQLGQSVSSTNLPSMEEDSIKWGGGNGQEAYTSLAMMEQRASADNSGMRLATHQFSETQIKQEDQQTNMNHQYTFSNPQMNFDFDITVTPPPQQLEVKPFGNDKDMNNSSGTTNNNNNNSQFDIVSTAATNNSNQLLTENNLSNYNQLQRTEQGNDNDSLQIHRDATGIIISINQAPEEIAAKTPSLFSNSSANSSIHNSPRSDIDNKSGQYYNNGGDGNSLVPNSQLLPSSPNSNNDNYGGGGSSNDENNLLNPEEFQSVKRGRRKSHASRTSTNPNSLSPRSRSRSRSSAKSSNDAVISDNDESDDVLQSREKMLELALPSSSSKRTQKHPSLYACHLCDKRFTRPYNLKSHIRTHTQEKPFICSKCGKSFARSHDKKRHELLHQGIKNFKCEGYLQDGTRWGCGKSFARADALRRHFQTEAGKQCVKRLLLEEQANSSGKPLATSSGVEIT

His6-CaCrz1 [2] = target: T1, His6-CaCrz1; test: EMSA; 1 ug protein; EMSA with DIG-labelled probes and 1 ug His6-Crz1; buffer, salt, pH and temperature not given in the material; conditions: protein: recombinant; tags: N-terminal His6 (pET28a(+)); label: DIG; blunt
His6-CaCrz1 [3] = target: T1, His6-CaCrz1; test: EMSA; 1 ug protein; abolished by unlabelled Probe 2; EMSA with DIG-labelled probes and 1 ug His6-Crz1; buffer, salt, pH and temperature not given in the material; conditions: protein: recombinant; tags: N-terminal His6 (pET28a(+)); label: DIG

Row | Binder | binding result (His6-CaCrz1 [2]) | also measured
1 | B1 | – | binding result (His6-CaCrz1 [1]; blunt): binds
2 | B2 | no binding | –
3 | B3 | no binding | –
4 | B4 | – | binding result (His6-CaCrz1 [1]): binds
5 | B5 | – | binding result (His6-CaCrz1 [3]): binds
6 | B6 | no binding | –
